Experiment: Specific activity of enzyme (PPIase activity measurement)
Type: biochemical
Conditions: recombinant E. coli PPIase-β, FIG. 26
From the text: As a result, the specific activity of the natural enzyme was.51,480 arbitrary units/[…] 1 unit, while that of the recombinant enzyme was 52,876 arbitrary units/A280 1 unit. Thus, no distinction could be made on specific activity (FIG. 26).

B1: recombinant enzyme: E. coli PPIase-β produced by E. coli HB101 transformed with expression plasmid pATtrp EPPIb (protein, UniProt P23869 1-164, looked up)
Peptidyl-prolyl cis-trans …: MVTFHTNHGDIVIKTFDDKAPETVKNFLDYCREGFYNNTIFHRVINGFMIQGGGFEPGMKQKATKEPIKNEANNGLKNTRGTLAMARTQAPHSATAQFFINVVDNDFLNFSGESLQGWGYCVFAEVVDGMDVVDKIKGVATGRSGMHQDVPKEDVIIESVTVSE
specific activity: 52,876 arbitrary units/A280 1 unit
